These results are taken from patent publication US20210355194A1 (TWIST BIOSCIENCE, published 2021).

Broadly, the Kd is the free concentration of one partner at which half of the binding sites on the other are occupied at equilibrium, for simple one-to-one binding. Read a low Kd as higher affinity.

This assay addresses T1, Acro SARS-CoV-2 (COVID-19) S1 protein (SARS-CoV-2, UniProt P0DTC2 16-685).
T1 construct: also called SARS-CoV-2 S1
Description: SPR. Background: In SPR one partner is held on a chip, and binding of the other changes the refractive index at the surface.

B1: variant 6-13 (Fc fusion)
VHH: EVQLVESGGGLVQPGGSLRLSCAASGLTFNDYAMGWFRQAPGKEREFVAHIPRSTYSPYYADSVKGRFTISADNSKNTAYLQMNSLKPEDTAVYYCAFLVGPQGVDHGAFDVWGQGTLVTVSS
Molecule B1 yielded a Kd of 25.3 nM.

B2: variant 6-14 (Fc fusion)
VHH: EVQLVESGGGLVQPGGSLRLSCAASGITFRFKAMGWFRQAPGKEREFVAAVSWDGRNTYYADSVKGRFTISADNSKNTAYLQMNSLKPEDTAVYYCASDYYYMDVWGQGTLVTVSS
B2 had a Kd of 135 nM.

B3: variant 6-3 (Fc fusion)
VHH: EVQLVESGGGLVQPGGSLRLSCAASGFTFSPSWMGWFRQAPGKEREFVATINEYGGRNYADSVKGRFTISADNSKNTAYLQMNSLKPEDTAVYYCARVDRDFDYWGQGTLVTVSS
notes: VHH-Fc
As to B3, the Kd worked out at 12.4 nM.

B4: variant 6-30 (Fc fusion)
VHH: EVQLVESGGGLVQPGGSLRLSCAASGFAFGDSWMGWFRQAPGKEREFVATINWSGVTAYADSVKGRFTISADNSKNTAYLQMNSLKPEDTAVYYCARADGYFDYWGQGTLVTVSS
B4 had a Kd of 11.8 nM.

B5: variant 6-77 (Fc fusion)
VHH: EVQLVESGGGLVQPGGSLRLSCAASGFTFDRSWMGWFRQAPGKEREFVAAVTEGGTTSYADSVKGRFTISADNSKNTAYLQMNSLKPEDTAVYYCARADYDFDYWGQGTLVTVSS
Take B5: the Kd is 24.6 nM.

B6: variant 6-33 (Fc fusion)
VHH: EVQLVESGGGLVQPGGSLRLSCAASGTFQRINHMGWFRQAPGKEREFVATINTGGQPNYADSVKGRFTISADNSKNTAYLQMNSLKPEDTAVYYCASLIAAQDYYFDYWGQGTLVTVSS
The molecule B6 came in with a Kd of 76.4 nM.

B7: variant 6-34 (Fc fusion)
VHH: EVQLVESGGGLVQPGGSLRLSCAASGSAFRSNAMGWFRQAPGKEREFVAHISWSSKSTYYADSVKGRFTISADNSKNTAYLQMNSLKPEDTAVYYCATYCSSTSCFDYWGQGTLVTVSS
Molecule B7 came in with a Kd of 21.3 nM.

B8: variant 6-37 (Fc fusion)
VHH: EVQLVESGGGLVQPGGSLRLSCAASGHTFSTSWMGWFRQAPGKEREFVATINSLGGTNYADSVKGRFTISADNSKNTAYLQMNSLKPEDTAVYYCARVSSGDYGMDVWGQGTLVTVSS
The molecule B8 displayed a Kd of 22.5 nM. This Kd and that of the molecule before are within 1.5-fold of each other.

B9: variant 6-31 (Fc fusion)
VHH: EVQLVESGGGLVQPGGSLRLSCAASGDTFSANRMGWFRQAPGKEREFVASITWSSANTYYADSVKGRFTISADNSKNTAYLQMNSLKPEDTAVYYCATFNWNDEGFDFWGQGTLVTVSS
B9 had a Kd of 39.6 nM.

B10: variant 6-28 (Fc fusion)
VHH: EVQLVESGGGLVQPGGSLRLSCAASGDTYGSYWMGWFRQAPGKEREFVATITSDDRTNYADSVKGRFTISADNSKNTAYLQMNSLKPEDTAVYYCARVTSSLSGMDVWGQGTLVTVSS
The molecule B10 came in with a Kd of 54.1 nM. The Kd values of the last two molecules are within 1.5-fold of each other.

B11: variant 6-6 (Fc fusion)
VHH: EVQLVESGGGLVQPGGSLRLSCAASGTTLDYYAMGWFRQAPGKERELVAAISWSGGSTAYADSVKGRFTISADNSKNTAYLQMNSLKPEDTAVYYCAREDYYDSSGYSWGQGTLVTVSS
Consider B11, for which the Kd came to 6.4 nM.

B12: variant 6-18 (Fc fusion)
VHH: EVQLVESGGGLVQPGGSLRLSCAASGLTFRNYAMGWFRQAPGKEREFIAGMMWSGGTTTYADSVKGRFTISADNSKNTAYLQMNSLKPEDTAVYYCAREGYYYDSSGYLNYFDYWGQGTLVTVSS
B12 showed a Kd of 30.1 nM. Compared with the last molecule, the Kd is about 4.7-fold higher.

B13: variant 6-36 (Fc fusion)
VHH: EVQLVESGGGLVQPGGSLRLSCAASGFDFSVSWMGWFRQAPGKEREFVTAITWSGDSTNYADSVKGRFTISADNSKNTAYLQMNSLKPEDTAVYYCASLLHTGPSGGNYFDYWGQGTLVTVSS
For the molecule B13, the Kd stood at 32.1 nM.

B14: variant 6-5 (Fc fusion)
VHH: EVQLVESGGGLVQPGGSLRLSCAASGRTFTMGWFRQAPGKEREFVASTNSAGSTNYADSVNGRFTISADNSKNTAYLQMNSLKPEDTAVYYCTTVDQYFDYWGQGTLVTVSS
Regarding B14, the Kd was found to be 24.9 nM.

B15: variant 6-32 (Fc fusion)
VHH: EVQLVESGGGLVQPGGSLRLSCAASGFTLDYYDMGWFRQAPGKEREFVALISWSGGSTYYADSVKGRFTISADNSKNTAYLQMNSLKPEDTAVYYCATDFYGWGTRERDAFDIWGQGTLVTVSS
B15 gave a Kd of 27.2 nM.

B16: variant 6-23 (Fc fusion)
VHH: EVQLVESGGGLVQPGGSLRLSCAASGSIFSMNTMGWFRQAPGKEREFVALINRSGGGINYADSVKGRFTISADNSKNTAYLQMNSLKPEDTAVYYCVRLSSGYYDFDYWGQGTLVTVSS
Take B16: the Kd turned out to be 59.3 nM.

B17: variant 6-35 (Fc fusion)
VHH: EVQLVESGGGLVQPGGSLRLSCAASGFTLAYYAMGWFRQAPGKEREFVAAISMSGDDTIYADSVKGRFTISADNSKNTAYLQMNSLKPEDTAVYYCARELGYSSTVWPWGQGTLVTVSS
B17 gave a Kd of 251 nM. This Kd is about 4.2-fold higher than that of the molecule before.

B18: variant 6-16 (Fc fusion)
VHH: EVQLVESGGGLVQPGGSLRLSCAASGFTFDDAAMGWFRQAPGKEREFVAHISWSGGSTYYADSVKGRFTISADNSKNTAYLQMNSLKPEDTAVYYCATFGATVTATNDAFDIWGQGTLVTVSS
Molecule B18 registered a Kd of 52.1 nM.

B19: variant 6-2 (Fc fusion)
VHH: EVQLVESGGGLVQPGGSLRLSCAASGFTMSSSWMGWFRQAPGKEREFVTVISGVGTSYADSVKGRFTISADNSKNTAYLQMNSLKPEDTAVYYCARGPDSSGYGFDYWGQGTLVTVSS
For the molecule B19, binding was characterised by a dissociation constant (Kd) of 29.9 nM.

B20: variant 6-19 (Fc fusion)
VHH: EVQLVESGGGLVQPGGSLRLSCAASGSILSIAVMGWFRQAPGKEREFVAAISPSAVTTYYADSVKGRFTISADNSKNTAYLQMNSLKPEDTAVYYCAIGYYDSSGYFDYWGQGTLVTVSS
Take B20: binding was put at a Kd of 71 nM.

B21: variant 6-9 (Fc fusion)
VHH: EVQLVESGGGLVQPGGSLRLSCAASGFTFDYYAMGWFRQAPGKEREFVSAIDSEGRTSYADSVKGRFTISADNSKNTAYLQMNSLKPEDTAVYYCARWGPFDIWGQGTLVTVSS
Consider B21, for which the Kd came out at 18.5 nM.

B22: variant 5-64 (Fc fusion)
VHH: EVQLVESGGGLVQPGGSLRLSCAASGTSISNRVMGWFRQAPGKERELVARIYTGGDTLYADSVKGRFTISADNSKNTAYLQMNSLKPEDTAVYYCAARKIYRSLSYYGDYDWGQGTLVTVSS
B22 returned a Kd of 346 nM.

B23: variant 5-67 (Fc fusion)
VHH: EVQLVESGGGLVQPGGSLRLSCAASGFNVNDYAMGWFRQAPGKEREFVAGITSSVGVTNYADSVKGRFTISADNSKNTAYLQMNSLKPEDTAVYYCAADIFFVNWGRGTLVTVSS
In the case of B23, the affinity, expressed as Kd, was 22.1 nM.

B24: variant 6-10 (Fc fusion)
VHH: EVQLVESGGGLVQPGGSLRLSCAASGSIASIHAMGWFRQAPGKEREFVAAISRSGGFGSYADSVKGRFTISADNSKNTAYLQMNSLKPEDTAVYYCARDDKYYDSSGYPAYFQHWGQGTLVTVSS
Turning to B24, the Kd came out at 29.7 nM.

B25: variant 6-24 (Fc fusion)
VHH: EVQLVESGGGLVQPGGSLRLSCAASGFTLDYYAMGWFRQAPGKEREFVAAINWSGDNTHYADSVKGRFTISADNSKNTAYLQMNSLKPEDTAVYYCARAPFYCTTTKCQDNYYYMDVWGQGTLVTVSS
In turn, B25 showed a Kd of 29.9 nM.

B26: variant 5-68 (Fc fusion)
VHH: EVQLVESGGGLVQPGGSLRLSCAASGFTFDHYTMGWFRQAPGKEREFVAAISGSENVTSYADSVKGRFTISADNSKNTAYLQMNSLKPEDTAVYYCAAEPYIPVRTMRHMTFLTWGQGTLVTVSS
Turning to B26, the Kd is 111 nM.

B27: variant 6-17 (Fc fusion)
VHH: EVQLVESGGGLVQPGGSLRLSCAASGNTGSTGYMGWFRQAPGKEREMVAGVINDGSTVYADSVKGRFTISADNSKNTAYLQMNSLKPEDTAVYYCARLATSHQDGTGYLFDYWGQGTLVTVSS
On to B27, for which the affinity, expressed as Kd, was 65.2 nM.

B28: variant 6-22 (Fc fusion)
VHH: EVQLVESGGGLVQPGGSLRLSCAASGRTFSEVVMGWFRQAPGKEREFVATIHSSGSTSYADSVKGRFTISADNSKNTAYLQMNSLKPEDTAVYYCVRVTSDYSMDSWGQGTLVTVSS
For B28, the Kd is 25.6 nM.

B29: variant 6-12 (Fc fusion)
VHH: EVQLVESGGGLVQPGGSLRLSCAASGSTYTTYSMGWFRQAPGKEREFVAAISGSENVTSYADSVKGRFTISADNSKNTAYLQMNSLKPEDTAVYYCARVDDYMDVWGQGTLVTVSS
B29 had a Kd of 50.2 nM.

B30: variant 6-1 (Fc fusion)
VHH: EVQLVESGGGLVQPGGSLRLSCAASGRTFGNYNMGWFRQAPGKEREFVATINSLGGTSYADSVKGRFTISADNSKNTAYLQMNSLKPEDTAVYYCARVDYYMDVWGQGTLVTVSS
In turn, B30 displayed a Kd of 35.8 nM.

B31: variant 5-65 (Fc fusion)
VHH: EVQLVESGGGLVQPGGSLRLSCAASGNIDRLYAMGWFRQAPGKEREGVAAIDSDGSTDYADSVKGRFTISADNSKNTAYLQMNSLKPEDTAVYYCAALIDYGLGFPIEWGQGTLVTVSS
B31 showed a Kd of 353 nM. This Kd is about 9.9-fold higher than that of the molecule before.

B32: variant 6-25 (Fc fusion)
VHH: EVQLVESGGGLVQPGGSLRLSCAASGLTFGTYTMGWFRQAPGKEREFVAAISRFGSTYYADSVKGRFTISADNSKNTAYLQMNSLKPEDTAVYYCARGGDYDFWSVDYMDVWGQGTLVTVSS
B32 returned a Kd of 248 nM.

B33: variant 6-4 (Fc fusion)
VHH: EVQLVESGGGLVQPGGSLRLSCAASGFTRDYYTMGWFRQAPGKEREFVAAISRSGSLTSYADSVKGRFTISADNSKNTAYLQMNSLKPEDTAVYYCANLAYYDSSGYYDYWGQGTLVTVSS
Molecule B33 registered a Kd of 45.8 nM.
